# In patent US7824885B2, “Engineered proteases for affinity purification and processing of fusion proteins” (University of Maryland, College Park, priority 2003, dated 2010):
# B1: pR58: version of pR8 with its last four amino acids (AHAY) replaced with FRAM (protein)
# chain: AGKSNGEKKYIVGFKSGIKSCAKKQDVISEKGGKLQKCFKYVDAASATLNEKAVKELKKDPSVAYVEEDKVFRAM
# modifications: pR58 (pR8FRAM) variant of SEQ ID NO 2
# notes: version of pR8 with its last four amino acids (AHAY) replaced with FRAM
# Biological target: S160 (Bacillus amyloliquefaciens, UniProt P00782, DEL180-188/E263S/G190A/G235S/G273S/G276A/I138L/K150N/M157F/N319G/N325S/Q313C/Q378E/S116A/S295P/T361A/Y211A/Y324L)
# Assay: inhibition of S160 by prodomain pR58
# Format: biochemical
# Chain of S160 (P00782 other isoform, or with tags, fused parts or gaps with the stated changes): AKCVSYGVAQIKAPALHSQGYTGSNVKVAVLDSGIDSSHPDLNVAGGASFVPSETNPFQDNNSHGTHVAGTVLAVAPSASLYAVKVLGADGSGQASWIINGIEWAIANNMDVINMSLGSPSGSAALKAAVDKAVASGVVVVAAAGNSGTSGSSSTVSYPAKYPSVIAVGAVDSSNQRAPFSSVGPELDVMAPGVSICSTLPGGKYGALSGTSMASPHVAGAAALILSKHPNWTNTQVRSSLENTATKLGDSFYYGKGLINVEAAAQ
molecule,measurement,value
B1,Ki,~0.03 nM
